According to patent US20240327522A1 (Genentech, published 2024):

Experiments:
cyno.aVb8.13650 = target: T1, cyno.aVb8.13650 (cynomolgus, UniProt A0A2K5WCD3 31-992; G7P0S0 43-684); assay: SPR binding assay, experiment 2, antibody as ligand, aVb8 as sample
T1 construct: Carries another lot/construct number than cyno.aVb8-19393; kept apart; also called cynomolgus αvβ8

[1] = target: T2, recombinant mouse αvβ8 protein (PARS-17103) (murine, UniProt P43406 31-988; Q0VBD0 43-681, limits assumed); assay: as above
T2 construct: Made in house; also called mu.aVb8.17103
T2 sequence (P43406 31-988 limits assumed, chain 1 of 2): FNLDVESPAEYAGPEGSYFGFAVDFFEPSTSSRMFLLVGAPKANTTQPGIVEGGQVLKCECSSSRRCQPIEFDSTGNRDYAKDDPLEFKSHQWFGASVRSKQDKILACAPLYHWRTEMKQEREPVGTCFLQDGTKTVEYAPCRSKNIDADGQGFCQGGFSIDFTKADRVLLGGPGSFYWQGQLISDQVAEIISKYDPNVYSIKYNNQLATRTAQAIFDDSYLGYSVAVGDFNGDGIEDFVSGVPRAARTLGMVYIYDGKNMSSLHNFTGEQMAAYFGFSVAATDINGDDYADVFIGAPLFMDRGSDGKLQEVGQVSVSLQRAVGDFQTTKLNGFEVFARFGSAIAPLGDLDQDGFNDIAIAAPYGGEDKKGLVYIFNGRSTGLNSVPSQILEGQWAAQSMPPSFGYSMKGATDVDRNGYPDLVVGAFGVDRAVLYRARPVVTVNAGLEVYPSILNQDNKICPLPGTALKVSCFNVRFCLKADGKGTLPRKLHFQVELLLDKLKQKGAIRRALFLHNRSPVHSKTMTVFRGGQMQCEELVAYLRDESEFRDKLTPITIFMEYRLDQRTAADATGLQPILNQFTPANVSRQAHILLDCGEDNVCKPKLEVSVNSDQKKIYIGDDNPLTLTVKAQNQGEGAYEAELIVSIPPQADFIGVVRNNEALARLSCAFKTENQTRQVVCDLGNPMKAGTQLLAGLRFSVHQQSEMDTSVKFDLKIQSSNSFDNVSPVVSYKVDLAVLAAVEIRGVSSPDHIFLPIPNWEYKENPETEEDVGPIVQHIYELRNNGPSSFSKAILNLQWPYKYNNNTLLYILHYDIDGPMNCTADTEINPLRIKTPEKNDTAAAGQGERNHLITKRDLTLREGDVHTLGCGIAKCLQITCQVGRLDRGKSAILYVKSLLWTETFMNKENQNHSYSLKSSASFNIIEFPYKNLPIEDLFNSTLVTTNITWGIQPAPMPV
T2 sequence (Q0VBD0 43-681 limits assumed, chain 2 of 2): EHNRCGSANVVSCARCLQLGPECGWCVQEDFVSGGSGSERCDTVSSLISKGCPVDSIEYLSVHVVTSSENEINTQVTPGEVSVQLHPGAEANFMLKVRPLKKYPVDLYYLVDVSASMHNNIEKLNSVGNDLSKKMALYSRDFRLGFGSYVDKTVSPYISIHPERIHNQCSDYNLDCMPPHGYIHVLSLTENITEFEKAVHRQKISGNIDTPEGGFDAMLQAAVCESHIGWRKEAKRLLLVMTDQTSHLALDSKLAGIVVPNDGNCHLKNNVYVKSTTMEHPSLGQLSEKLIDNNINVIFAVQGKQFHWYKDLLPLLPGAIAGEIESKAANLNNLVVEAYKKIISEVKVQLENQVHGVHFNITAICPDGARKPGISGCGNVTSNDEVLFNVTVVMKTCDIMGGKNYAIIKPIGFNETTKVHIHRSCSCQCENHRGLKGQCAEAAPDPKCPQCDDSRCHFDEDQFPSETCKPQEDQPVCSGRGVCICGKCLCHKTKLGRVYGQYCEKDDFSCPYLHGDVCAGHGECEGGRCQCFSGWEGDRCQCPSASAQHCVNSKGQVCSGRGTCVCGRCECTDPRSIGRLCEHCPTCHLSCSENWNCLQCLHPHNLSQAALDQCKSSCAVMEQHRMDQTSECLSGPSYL

[2] = target: T3, recombinant human αvβ8 protein (PARS-17102) (human); assay: as above
T3 construct: also called hu.aVb8.17102; not shown: C-terminal acid/basic coils and any purification tags
T3 alpha: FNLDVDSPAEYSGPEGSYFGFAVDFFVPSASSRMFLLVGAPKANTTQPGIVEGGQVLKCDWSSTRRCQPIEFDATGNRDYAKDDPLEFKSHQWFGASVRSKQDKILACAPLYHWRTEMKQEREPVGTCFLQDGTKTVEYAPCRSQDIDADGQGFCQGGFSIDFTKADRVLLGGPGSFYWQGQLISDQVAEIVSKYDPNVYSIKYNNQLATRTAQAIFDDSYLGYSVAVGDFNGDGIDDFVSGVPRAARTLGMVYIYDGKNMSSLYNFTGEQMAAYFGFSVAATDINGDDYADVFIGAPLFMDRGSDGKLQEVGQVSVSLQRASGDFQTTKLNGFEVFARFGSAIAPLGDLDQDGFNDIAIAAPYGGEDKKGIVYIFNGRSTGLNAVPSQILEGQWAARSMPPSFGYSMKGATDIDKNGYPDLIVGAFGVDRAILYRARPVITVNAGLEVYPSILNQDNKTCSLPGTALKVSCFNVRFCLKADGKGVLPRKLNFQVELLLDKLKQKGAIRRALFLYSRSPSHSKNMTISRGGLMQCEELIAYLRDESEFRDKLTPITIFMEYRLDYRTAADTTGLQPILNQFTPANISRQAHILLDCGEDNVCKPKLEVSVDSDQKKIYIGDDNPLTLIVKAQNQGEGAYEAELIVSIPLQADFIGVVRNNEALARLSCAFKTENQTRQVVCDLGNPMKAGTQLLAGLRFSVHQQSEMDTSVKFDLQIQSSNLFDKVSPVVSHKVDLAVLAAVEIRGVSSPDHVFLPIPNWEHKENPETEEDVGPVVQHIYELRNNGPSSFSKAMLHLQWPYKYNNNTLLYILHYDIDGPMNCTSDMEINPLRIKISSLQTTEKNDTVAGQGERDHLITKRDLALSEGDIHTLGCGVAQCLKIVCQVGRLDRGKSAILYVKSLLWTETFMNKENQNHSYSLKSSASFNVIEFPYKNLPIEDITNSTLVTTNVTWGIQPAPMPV
T3 beta: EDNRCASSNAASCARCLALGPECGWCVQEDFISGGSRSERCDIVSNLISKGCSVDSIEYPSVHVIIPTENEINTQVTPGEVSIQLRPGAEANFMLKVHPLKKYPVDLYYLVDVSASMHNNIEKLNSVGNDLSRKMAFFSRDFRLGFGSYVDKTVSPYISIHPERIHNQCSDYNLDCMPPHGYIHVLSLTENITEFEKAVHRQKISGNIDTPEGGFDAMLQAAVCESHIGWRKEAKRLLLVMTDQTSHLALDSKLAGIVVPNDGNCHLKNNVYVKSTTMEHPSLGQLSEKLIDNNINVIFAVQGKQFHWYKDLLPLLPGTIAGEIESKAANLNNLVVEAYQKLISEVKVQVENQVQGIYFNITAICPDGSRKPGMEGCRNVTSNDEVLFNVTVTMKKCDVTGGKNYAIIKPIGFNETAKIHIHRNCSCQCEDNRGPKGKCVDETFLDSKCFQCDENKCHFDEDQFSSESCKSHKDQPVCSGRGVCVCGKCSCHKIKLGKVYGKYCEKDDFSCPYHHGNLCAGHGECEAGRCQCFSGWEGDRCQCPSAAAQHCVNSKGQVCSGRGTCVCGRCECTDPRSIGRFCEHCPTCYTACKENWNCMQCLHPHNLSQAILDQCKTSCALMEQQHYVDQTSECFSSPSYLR

human αvβ1 = target: T4, human αvβ1 (human, UniProt P06756 31-992; P05556 21-728); assay: SPR binding assay, sample hu.aVb1,3,5,6
T4 construct: Counter-screen integrin; construct not described; also called hu.aVb1; αVP1
T4 sequence (P05556 21-728 limits assumed, one chain of several): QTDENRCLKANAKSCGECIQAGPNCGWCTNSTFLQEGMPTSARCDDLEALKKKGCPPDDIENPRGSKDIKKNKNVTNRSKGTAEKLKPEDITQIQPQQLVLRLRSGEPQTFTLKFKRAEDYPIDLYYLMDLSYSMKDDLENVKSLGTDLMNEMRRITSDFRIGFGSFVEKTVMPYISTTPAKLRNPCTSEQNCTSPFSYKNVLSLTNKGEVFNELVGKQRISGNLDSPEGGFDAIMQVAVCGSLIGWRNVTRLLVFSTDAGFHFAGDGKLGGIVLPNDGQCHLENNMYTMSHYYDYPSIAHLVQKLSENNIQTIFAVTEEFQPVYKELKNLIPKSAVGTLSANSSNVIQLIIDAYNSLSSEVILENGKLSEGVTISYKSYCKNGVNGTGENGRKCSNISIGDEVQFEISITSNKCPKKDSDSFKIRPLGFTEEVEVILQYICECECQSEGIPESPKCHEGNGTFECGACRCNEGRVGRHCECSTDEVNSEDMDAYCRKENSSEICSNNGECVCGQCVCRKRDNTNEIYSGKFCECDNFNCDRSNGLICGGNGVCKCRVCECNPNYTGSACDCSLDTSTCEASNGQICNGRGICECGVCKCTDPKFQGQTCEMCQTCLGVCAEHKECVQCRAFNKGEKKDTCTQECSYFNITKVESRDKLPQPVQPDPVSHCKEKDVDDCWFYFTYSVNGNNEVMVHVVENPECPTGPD

human αvβ5 = target: T5, human αvβ5 (human, UniProt P06756 31-992; P18084 24-719); assay: SPR binding assay, sample hu.aVb1,3,5,6
T5 construct: Counter-screen integrin; construct not described; also called hu.aVb5; αV05
T5 sequence (P18084 24-719 limits assumed, one chain of several): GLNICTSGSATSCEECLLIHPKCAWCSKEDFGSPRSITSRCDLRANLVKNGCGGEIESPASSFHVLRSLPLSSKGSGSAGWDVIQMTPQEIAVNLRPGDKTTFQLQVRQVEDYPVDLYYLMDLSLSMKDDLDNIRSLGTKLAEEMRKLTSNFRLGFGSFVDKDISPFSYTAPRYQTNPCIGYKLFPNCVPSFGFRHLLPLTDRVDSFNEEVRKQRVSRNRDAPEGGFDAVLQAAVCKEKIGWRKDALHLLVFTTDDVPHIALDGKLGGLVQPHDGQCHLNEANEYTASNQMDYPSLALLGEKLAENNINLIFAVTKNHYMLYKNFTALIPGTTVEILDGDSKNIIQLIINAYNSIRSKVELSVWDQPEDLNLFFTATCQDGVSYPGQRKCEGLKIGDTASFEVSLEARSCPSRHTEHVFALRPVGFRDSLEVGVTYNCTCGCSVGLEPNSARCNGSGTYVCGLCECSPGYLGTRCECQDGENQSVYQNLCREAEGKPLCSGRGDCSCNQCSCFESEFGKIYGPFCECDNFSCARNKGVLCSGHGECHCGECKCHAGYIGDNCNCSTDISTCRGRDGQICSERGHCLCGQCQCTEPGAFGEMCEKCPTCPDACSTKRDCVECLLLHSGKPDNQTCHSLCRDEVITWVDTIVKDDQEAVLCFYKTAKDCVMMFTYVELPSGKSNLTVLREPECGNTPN

human αvβ6 = target: T6, human αvβ6 (human, UniProt P06756 31-992; P18564 22-709); assay: SPR binding assay, sample hu.aVb1,3,5,6
T6 construct: Counter-screen integrin; construct not described; also called hu.aVb6; αV06
T6 sequence (P18564 22-709 limits assumed, one chain of several): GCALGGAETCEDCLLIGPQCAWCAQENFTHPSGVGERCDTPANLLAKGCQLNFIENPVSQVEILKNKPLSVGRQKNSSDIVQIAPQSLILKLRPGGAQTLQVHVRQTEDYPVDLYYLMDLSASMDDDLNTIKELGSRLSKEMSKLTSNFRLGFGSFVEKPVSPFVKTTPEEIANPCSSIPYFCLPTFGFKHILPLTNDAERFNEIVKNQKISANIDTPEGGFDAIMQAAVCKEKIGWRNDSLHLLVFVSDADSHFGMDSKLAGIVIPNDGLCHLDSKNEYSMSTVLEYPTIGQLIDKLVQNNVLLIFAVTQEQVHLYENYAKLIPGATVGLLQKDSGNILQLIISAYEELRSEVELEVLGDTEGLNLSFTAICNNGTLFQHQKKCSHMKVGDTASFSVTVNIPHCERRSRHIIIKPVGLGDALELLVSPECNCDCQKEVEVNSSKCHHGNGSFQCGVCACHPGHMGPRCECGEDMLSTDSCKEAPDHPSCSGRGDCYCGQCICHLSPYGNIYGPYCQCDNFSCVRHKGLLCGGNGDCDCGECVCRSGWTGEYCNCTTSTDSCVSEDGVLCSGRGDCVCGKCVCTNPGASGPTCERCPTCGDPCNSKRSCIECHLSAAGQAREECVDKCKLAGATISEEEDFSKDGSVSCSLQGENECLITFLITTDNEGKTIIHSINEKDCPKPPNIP

human αvβ3 = target: T7, human αvβ3 (human, UniProt P06756 31-992; P05106 27-718); assay: SPR binding assay, sample hu.aVb1,3,5,6
T7 construct: Counter-screen integrin; construct not described; also called hu.aVb3; αV03
T7 sequence (P05106 27-718 limits assumed, one chain of several): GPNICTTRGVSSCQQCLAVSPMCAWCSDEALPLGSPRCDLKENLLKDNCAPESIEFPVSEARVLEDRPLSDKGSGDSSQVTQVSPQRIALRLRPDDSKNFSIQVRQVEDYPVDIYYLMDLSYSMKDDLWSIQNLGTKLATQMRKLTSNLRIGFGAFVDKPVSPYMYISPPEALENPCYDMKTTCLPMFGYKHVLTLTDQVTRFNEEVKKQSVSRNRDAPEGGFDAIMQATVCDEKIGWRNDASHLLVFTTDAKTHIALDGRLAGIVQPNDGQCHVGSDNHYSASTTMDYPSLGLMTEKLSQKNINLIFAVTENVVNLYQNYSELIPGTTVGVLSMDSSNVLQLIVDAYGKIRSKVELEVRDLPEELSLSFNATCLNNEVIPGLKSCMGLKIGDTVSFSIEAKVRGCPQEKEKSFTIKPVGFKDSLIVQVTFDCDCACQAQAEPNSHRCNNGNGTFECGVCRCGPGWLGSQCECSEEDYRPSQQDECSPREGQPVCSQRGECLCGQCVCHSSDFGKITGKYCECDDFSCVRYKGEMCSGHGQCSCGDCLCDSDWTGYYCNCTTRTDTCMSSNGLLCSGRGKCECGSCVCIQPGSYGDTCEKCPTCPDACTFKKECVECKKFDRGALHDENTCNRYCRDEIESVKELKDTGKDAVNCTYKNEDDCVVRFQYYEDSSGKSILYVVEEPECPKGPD

[3] = target: T2, recombinant mouse αvβ8 protein …; assay: SPR binding assay, experiment 1, antibody as ligand, aVb8 as sample
[4] = target: T8, recombinant cynomolgus monkey αvβ8 protein (PARS-19393) (cynomolgus monkey, UniProt A0A2K5WCD3 31-992; G7P0S0 43-684); assay: as above
T8 construct: also called cyno.aVb8-19393; cyno.aVb8

[5] = target: T3, recombinant human αvβ8 protein …; assay: as above

Kd (cyno.aVb8.13650): 12.9 nM
koff (cyno.aVb8.13650): 0.000443 s⁻¹
kon (cyno.aVb8.13650): 34500 M⁻¹ s⁻¹
Kd [1]: 3.42 nM
koff [1]: 0.000236 s⁻¹
kon [1]: 69100 M⁻¹ s⁻¹
Kd [2]: 2.95 nM
koff [2]: 0.000195 s⁻¹
kon [2]: 66100 M⁻¹ s⁻¹
binding result (human αvβ1): no binding
binding result (human αvβ5): no binding
binding result (human αvβ6): no binding
binding result (human αvβ3): no binding
Kd [3]: 9.91 nM
koff [3]: 0.000311 s⁻¹
kon [3]: 31400 M⁻¹ s⁻¹
Kd [4]: 11.1 nM
koff [4]: 0.000284 s⁻¹
kon [4]: 25500 M⁻¹ s⁻¹
Kd [5]: 10.1 nM
koff [5]: 0.000283 s⁻¹
kon [5]: 28000 M⁻¹ s⁻¹
B1: Hu.aVb8-92.H13L1 (aVb8-92.H13L1.hIgG1.LALAPG) (antibody, V domains shown)
VH: EQQLLESGGGLVQPGGSLRLSCAASGFSLSSYAMGWVRQAPGKGLEWIGVIRKDDNTYYGNWAKGRFTISRDSSKNTLYLQMNSLRAEDTAVYFCARALNTYVGFPYFNIWGPGTLVTVSS
VL: DAVLTQSPDSLAVSLGERATINCQSIKSVGDNKWLAWYQQKPGQPPKLLIYDASDLASGVPDRFSGSGSRTDFTLTISSLQAEDVAVYYCAGSVSSGDSGFGGGTKVEIKR
notes: Human IgG1 LALAPG; also called PARS-20463-65 (IH) aVb8-92.H13L1.hIgG1.LALAPG; humanized αvβ8-92
